Test results reported in patent US20220380459A1 (DRAGONFLY THERAPEUTICS, published 2022).
Read-outs that look alike come from different tables or passages of the source.

Tests used:
[1] = biological target: T1, human CD33 expressed on cells (human, UniProt P20138 18-364); test: flow cytometry on Molm-13 cells, fluorophore-conjugated anti-human IgG secondary antibody, MFI as fold over background (FOB)
T1 construct: endogenous CD33 of human AML cell lines and blood monocytes; also called cell-expressed CD33 (Molm-13, Mv4-11, monocytes)
Protocol: Binding of the TriNKET was detected using a fluorophore conjugated anti-human IgG secondary antibody. Cells were analyzed by flow cytometry, binding MFI to cell expressed CD33 was normalized to secondary antibody controls to obtain fold over background values.

[2] = biological target: T2, deglycosylated V domain of human CD33 (human, UniProt P20138 18-139, limits assumed, N-glycans removed by PNGase); test: SPR, Fab captured, 37C
T2 construct: V domain deglycosylated by PNGase before testing; also called deglycosylated V CD33
Protocol: (§1) Kinetics and affinity of a series of Fab fragments of anti-CD33 antibodies with different CD33 variants (human CD33 ECD, cyno CD33 ECD, V-domain of human CD33, C-domain or human CD33 and selected CD33 SNPs) were assessed by surface plasmon resonance using Biacore 8K instrument (GE Healthcare). Anti-Fab antibody was immobilized on a CMS chip using standard amine coupling chemistry. CD33 FABs were captured on the anti-Fab chip at a density of ˜100 RU. Solutions containing different concentrations of soluble monomeric CD33 or its domains were injected over the captured FABs and control surfaces at 30 μl/min at 37° C. Surfaces were regenerated between cycles by quick injection of 10 mM glycine, pH 1.8. To obtain kinetic rate constants double-referenced data were fit to a 1:1 interaction model using Biacore 8K Evaluation software (GE Healthcare). The equilibrium binding constant KD was determined by the ratio of binding rate constants kd/kₐ.
(§2) The ability of anti-CD33 antibodies to recognize glycosylated CD33 was assayed. […] De-glycosylation status was confirmed by a shift on SDS-PAGE and MS.

V domain of human CD33 [3] = biological target: T3, V domain of human CD33 (human, UniProt P20138 18-139, limits assumed); test: SPR, Fab captured, 37C
T3 construct: recombinant, fully glycosylated V domain; also called Human CD33 V domain
Protocol: as §1, §2

[4] = biological target: T4, cyno CD33 extracellular domain (Cynomolgus/Rhesus (cyno)); test: SPR, Fab captured, 37C;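 note: surface plasmon resonance with Fabs captured on anti-Fab surface, soluble monomeric CD33 as analyte at several concentrations, double-referenced 1:1 model fit, KD as koff/kon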
T4 construct: soluble monomeric ECD; also called cyno CD33 ECD
Protocol: as §1
(§3) Affinity of 29 Fab fragments binding to human and cyno CD33 ECD were assayed by Biacore analysis.

[5] = biological target: T5, human CD33 extracellular domain (human, UniProt P20138 18-259); test: SPR, Fab captured, 37C;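 for result: surface plasmon resonance with Fabs captured on anti-Fab surface, soluble monomeric CD33 as analyte at several concentrations, double-referenced 1:1 model fit, KD as koff/kon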
T5 construct: soluble monomeric ECD; also called human CD33 ECD; hCD33
Protocol: as §1, §3

[6] = biological target: T5, human CD33 extracellular domain; test: SPR, Fab captured, 37C; remark: listed apart in the source;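 for result: surface plasmon resonance with Fabs captured on anti-Fab surface, soluble monomeric CD33 as analyte at several concentrations, double-referenced 1:1 model fit, KD as koff/kon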
Protocol: as §1

V domain of human CD33 [7] = biological target: T3, V domain of human CD33; test: SPR, Fab captured, 37C; remark: listed apart in the source
Protocol: as §1

[8] = biological target: T5, human CD33 extracellular domain; test: SPR, Fab captured, 37C; remark: listed apart in the source;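 for result: surface plasmon resonance with Fabs captured on anti-Fab surface, soluble monomeric CD33 as analyte at several concentrations, double-referenced 1:1 model fit, KD as koff/kon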
C domain of human CD33 = biological target: T6, C domain of human CD33 (human, UniProt P20138 140-259, limits assumed); test: SPR, Fab captured, 37C
T6 construct: recombinant C domain
Protocol: as §1
The binding interface between the Fab fragment of each CD33 antibody to CD33 was mapped.

[9] = biological target: T5, human CD33 extracellular domain; test: SPR, Fab captured, 37C; remark: listed apart in the source
Protocol: as §1, §3

B1: A40.I07 (bispecific antibody)
NKG2D-binding VH: QVQLQQWGAGLLKPSETLSLTCAVYGGSFSGYYWSWIRQPPGKGLEWIGEIDHSGSTNYNPSLKSRVTISVDTSKNQFSLKLSSVTAADTAVYYCARARGPWSFDPWGQGTLVTVSS
NKG2D-binding VL: DIQMTQSPSTLSASVGDRVTITCRASQSIGSWLAWYQQKPGKAPKLLIYKASSLESGVPSRFSGSGSGTEFTLTISSLQPDDFATYYCQQYHSFYTFGGGTKVEIK
CD33-binding VH: EVQLVESGGGLVQPGGSLRLSCAASGFTFGSYWMSWVRQAPGKGLEWVATIKQDGSEKSYVDSVKGRFTISRDNAKNSLYLQMNSLRAEDTAVYYCARPLNAGELDVWGQGTMVTVSS
CD33-binding VL: DIQMTQSPSTLSASVGDRVTITCRASQSISSWLAWYQQKPGKAPKLLIYEASSLESGVPSRFSGSGSGTEFTLTISSLQPDDFATYYCQQSQSYPPITFGGGTKVEIK
binding result [1]: binds

B2: A40.I35 (bispecific antibody)
NKG2D-binding VH: QVQLQQWGAGLLKPSETLSLTCAVYGGSFSGYYWSWIRQPPGKGLEWIGEIDHSGSTNYNPSLKSRVTISVDTSKNQFSLKLSSVTAADTAVYYCARARGPWSFDPWGQGTLVTVSS
NKG2D-binding VL: DIQMTQSPSTLSASVGDRVTITCRASQSIGSWLAWYQQKPGKAPKLLIYKASSLESGVPSRFSGSGSGTEFTLTISSLQPDDFATYYCQQYHSFYTFGGGTKVEIK
CD33-binding VH: QLQLQESGPGLVKPSETLSLTCTVSGGSISSTDYYWGWIRQPPGKGLEWIGSIGYSGTYYNPSLKSRVTISVDTSKNQFSLKLSSVTAADTAVYYCARETAHDVHGMDVWGQGTTVTVSS
CD33-binding VL: EIVLTQSPATLSLSPGERATLSCRASHSVYSYLAWYQQKPGQAPRLLIYDASNRATGIPARFSGSGSGTDFTLTISSLEPEDFAVYYCQQYDNLPTFGGGTKVEIK
binding result [1]: binds

B3: F47.I07 (bispecific antibody)
NKG2D-binding VH: QVQLQQWGAGLLKPSETLSLTCAVYGGSFSGYYWSWIRQPPGKGLEWIGEIDHSGSTNYNPSLKSRVTISVDTSKNQFSLKLSSVTAADTAVYYCARARGPWSFDPWGQGTLVTVSS
NKG2D-binding VL: DIQMTQSPSTLSASVGDRVTITCRASQSISSWLAWYQQKPGKAPKLLIYKASSLESGVPSRFSGSGSGTEFTLTISSLQPDDFATYYCQQYDTFITFGGGTKVEIK
CD33-binding VH: EVQLVESGGGLVQPGGSLRLSCAASGFTFGSYWMSWVRQAPGKGLEWVATIKQDGSEKSYVDSVKGRFTISRDNAKNSLYLQMNSLRAEDTAVYYCARPLNAGELDVWGQGTMVTVSS
CD33-binding VL: DIQMTQSPSTLSASVGDRVTITCRASQSISSWLAWYQQKPGKAPKLLIYEASSLESGVPSRFSGSGSGTEFTLTISSLQPDDFATYYCQQSQSYPPITFGGGTKVEIK
binding result [1]: binds

B4: ADI-11828 Fab (Fab, V domains shown)
VH: EVQLVESGGGLVQPGGSLRLSCAASGFTFSSYWMSWVRQAPGKGLEWVANINQDGSEVYYVDSVKGRFTISRDNAKNSLYLQMNSLRAEDTAVYYCARDVGPGIAYQGHFDYWGQGTLVTVSS
VL: DIQMTQSPSSLSASVGDRVTITCRASQSIYYYLNWYQQKPGKAPKLLIYAASSRQSGVPSRFSGSGSGTDFTLTISSLQPEDFATYYCQQVYDTPLTFGGGTKVEIK
notes: Fab fragment; also called Ab27
Kd [2]: 4.87 nM
koff [2]: 0.0189 s⁻¹
kon [2]: 3.59e+06 M⁻¹ s⁻¹
Kd (V domain of human CD33 [3]): 6.3 nM
koff (V domain of human CD33 [3]): 0.0213 s⁻¹
kon (V domain of human CD33 [3]): 3.37e+06 M⁻¹ s⁻¹
Kd [4]: 53.5 nM
koff [4]: 0.0548 s⁻¹
kon [4]: 1.03e+06 M⁻¹ s⁻¹
Kd [5]: 2.67 nM
koff [5]: 0.00351 s⁻¹
kon [5]: 1.32e+06 M⁻¹ s⁻¹
Kd [6]: 2.67 nM
koff [6]: 0.00351 s⁻¹
kon [6]: 1.32e+06 M⁻¹ s⁻¹
Kd (V domain of human CD33 [7]): 6.3 nM
koff (V domain of human CD33 [7]): 0.0213 s⁻¹
kon (V domain of human CD33 [7]): 3.37e+06 M⁻¹ s⁻¹
Kd [8]: 2.67 nM
koff [8]: 0.00351 s⁻¹
kon [8]: 1.32e+06 M⁻¹ s⁻¹
binding result (C domain of human CD33): no binding
Kd [9]: 2.67 nM
koff [9]: 0.00351 s⁻¹

B5: ADI-10160 Fab (Fab, V domains shown)
VH: EVQLVESGGGLVQPGGSLRLSCAASGFTFSSYWMSWVRQAPGKGLEWVANINQDGSEKYYVDSVKGRFTISRDNAKNSLYLQMNSLRAEDTAVYYCAREANYYGNVGDDYWGQGTLVTVSS
VL: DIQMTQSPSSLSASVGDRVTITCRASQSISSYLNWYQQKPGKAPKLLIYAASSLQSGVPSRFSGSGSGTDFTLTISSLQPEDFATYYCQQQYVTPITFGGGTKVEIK
notes: Fab fragment; also called Ab15
Kd [2]: 133 nM
koff [2]: 0.225 s⁻¹
kon [2]: 1.7e+06 M⁻¹ s⁻¹
Kd (V domain of human CD33 [3]): 206 nM
koff (V domain of human CD33 [3]): 0.327 s⁻¹
kon (V domain of human CD33 [3]): 1.59e+06 M⁻¹ s⁻¹
binding result [4]: no binding (tested: 100 nM)
Kd [5]: 42.2 nM
koff [5]: 0.0269 s⁻¹
kon [5]: 637000 M⁻¹ s⁻¹
Kd [6]: 42.2 nM
koff [6]: 0.0269 s⁻¹
kon [6]: 637000 M⁻¹ s⁻¹
Kd (V domain of human CD33 [7]): 206 nM
koff (V domain of human CD33 [7]): 0.327 s⁻¹
kon (V domain of human CD33 [7]): 1.59e+06 M⁻¹ s⁻¹
Kd [8]: 42.2 nM
koff [8]: 0.0269 s⁻¹
kon [8]: 637000 M⁻¹ s⁻¹
binding result (C domain of human CD33): no binding
Kd [9]: 42.2 nM
koff [9]: 0.0269 s⁻¹

B6: ADI-11825 Fab (Fab, V domains shown)
VH: EVQLVESGGGLVQPGGSLRLSCAASGFTFGGYWMSWVRQAPGKGLEWVANINQDGSEEYYVDSVKGRFTISRDNAKNSLYLQMNSLRAEDTAVYYCAREANYYGNVGDDYWGQGTLVTVSS
VL: DIQMTQSPSSLSASVGDRVTITCRASQSIYNYLNWYQQKPGKAPKLLIYAASNLHSGVPSRFSGSGSGTDFTLTISSLQPEDFATYYCQQAFHVPITFGGGTKVEIK
notes: Fab fragment; also called Ab25
Kd [2]: 3.11 nM
koff [2]: 0.018 s⁻¹
kon [2]: 5.78e+06 M⁻¹ s⁻¹
Kd (V domain of human CD33 [3]): 3.95 nM
koff (V domain of human CD33 [3]): 0.0195 s⁻¹
kon (V domain of human CD33 [3]): 4.93e+06 M⁻¹ s⁻¹
binding result [4]: no binding (tested: 100 nM)
Kd [5]: 1.78 nM
koff [5]: 0.0038 s⁻¹
kon [5]: 2.13e+06 M⁻¹ s⁻¹
Kd [6]: 1.78 nM
koff [6]: 0.0038 s⁻¹
kon [6]: 2.13e+06 M⁻¹ s⁻¹
Kd (V domain of human CD33 [7]): 3.95 nM
koff (V domain of human CD33 [7]): 0.0195 s⁻¹
kon (V domain of human CD33 [7]): 4.93e+06 M⁻¹ s⁻¹
Kd [8]: 1.78 nM
koff [8]: 0.0038 s⁻¹
kon [8]: 2.13e+06 M⁻¹ s⁻¹
binding result (C domain of human CD33): no binding
Kd [9]: 1.78 nM
koff [9]: 0.0038 s⁻¹

B7: ADI-10161 Fab (Fab, V domains shown)
VH: EVQLVESGGGLVQPGGSLRLSCAASGFTFSSYWMSWVRQAPGKGLEWVANINQDGSEKYYVDSVKGRFTISRDNAKNSLYLQMNSLRAEDTAVYYCAREGGDSWYHAFDIWGQGTMVTVSS
VL: DIQMTQSPSSVSASVGDRVTITCRASQGISSWLAWYQQKPGKAPKLLIYAASNLQSGVPSRFSGSGSGTDFTLTISSLQPEDFATYYCQQKLSLPLTFGGGTKVEIK
notes: Fab fragment; also called Ab16
Kd [2]: 85.6 nM
koff [2]: 0.196 s⁻¹
kon [2]: 2.29e+06 M⁻¹ s⁻¹
Kd (V domain of human CD33 [3]): 95.8 nM
koff (V domain of human CD33 [3]): 0.124 s⁻¹
kon (V domain of human CD33 [3]): 1.29e+06 M⁻¹ s⁻¹
binding result [4]: no binding (tested: 100 nM)
Kd [5]: 20.6 nM
koff [5]: 0.0118 s⁻¹
kon [5]: 574000 M⁻¹ s⁻¹
Kd [6]: 20.6 nM
koff [6]: 0.0118 s⁻¹
kon [6]: 574000 M⁻¹ s⁻¹
Kd (V domain of human CD33 [7]): 95.8 nM
koff (V domain of human CD33 [7]): 0.124 s⁻¹
kon (V domain of human CD33 [7]): 1.29e+06 M⁻¹ s⁻¹
Kd [8]: 20.6 nM
koff [8]: 0.0118 s⁻¹
kon [8]: 574000 M⁻¹ s⁻¹
binding result (C domain of human CD33): no binding
Kd [9]: 20.6 nM
koff [9]: 0.0118 s⁻¹

B8: ADI-11839 Fab (Fab, V domains shown)
VH: QVQLVQSGAEVKKPGASVKVSCKASGYTFSNYYMHWVRQAPGQGLEWMGWINPFSGGTRYAQKFQGRVTMTRDTSTSTVYMELSSLRSEDTAVYYCARDVGSSAYYYMDVWGKGTTVTVSS
VL: DIQMTQSPSSVSASVGDRVTITCEASKGISSWLAWYQQKPGKAPKLLIYAASDLQSGVPSRFSGSGSGTDFTLTISSLQPEDFATYYCQQAFLFPPTFGGGTKVEIK
notes: Fab fragment; also called Ab28
Kd [2]: 70.3 nM
koff [2]: 0.116 s⁻¹
kon [2]: 1.65e+06 M⁻¹ s⁻¹
Kd (V domain of human CD33 [3]): 44.6 nM
koff (V domain of human CD33 [3]): 0.41 s⁻¹
kon (V domain of human CD33 [3]): 9.19e+06 M⁻¹ s⁻¹
binding result [4]: no binding (tested: 100 nM)
Kd [5]: 18.6 nM
koff [5]: 0.0162 s⁻¹
kon [5]: 874000 M⁻¹ s⁻¹
Kd [6]: 18.6 nM
koff [6]: 0.0162 s⁻¹
kon [6]: 874000 M⁻¹ s⁻¹
Kd (V domain of human CD33 [7]): 44.6 nM
koff (V domain of human CD33 [7]): 0.41 s⁻¹
kon (V domain of human CD33 [7]): 9.19e+06 M⁻¹ s⁻¹
Kd [8]: 18.6 nM
koff [8]: 0.0162 s⁻¹
kon [8]: 874000 M⁻¹ s⁻¹
binding result (C domain of human CD33): no binding
Kd [9]: 18.6 nM
koff [9]: 0.0162 s⁻¹

B9: ADI-10164 Fab (Fab, V domains shown)
VH: QVQLQESGPGLVKPSETLSLTCAVSGYSISSGYYWGWIRQPPGKGLEWIGSIYHSGSTNYNPSLKSRVTISVDTSKNQFSLKLSSVTAADTAVYYCARLPPWFGFSYFDLWGRGTLVTVSS
VL: EIVLTQSPATLSLSPGERATLSCRASQSVSSYLAWYQQKPGQAPRLLIYDASNRATGIPARFSGSGSGTDFTLTISSLEPEDFAVYYCQQVDNYPPTFGGGTKVEIK
notes: Fab fragment; also called Ab18
Kd [2]: 143 nM
koff [2]: 0.116 s⁻¹
kon [2]: 811000 M⁻¹ s⁻¹
Kd (V domain of human CD33 [3]): 286 nM
koff (V domain of human CD33 [3]): 0.37 s⁻¹
kon (V domain of human CD33 [3]): 1.29e+06 M⁻¹ s⁻¹
binding result [4]: no binding (tested: 100 nM)
Kd [5]: 31.5 nM
koff [5]: 0.0101 s⁻¹
kon [5]: 319000 M⁻¹ s⁻¹
Kd [6]: 31.5 nM
koff [6]: 0.0101 s⁻¹
kon [6]: 319000 M⁻¹ s⁻¹
Kd (V domain of human CD33 [7]): 286 nM
koff (V domain of human CD33 [7]): 0.37 s⁻¹
kon (V domain of human CD33 [7]): 1.29e+06 M⁻¹ s⁻¹
Kd [8]: 31.5 nM
koff [8]: 0.0101 s⁻¹
kon [8]: 319000 M⁻¹ s⁻¹
binding result (C domain of human CD33): no binding
Kd [9]: 31.5 nM
koff [9]: 0.0101 s⁻¹
